Source: article PMC9779223, “Impact of Troponin in Cardiomyopathy Development Caused by Mutations in Tropomyosin” (International Journal of Molecular Sciences, 2022)

Target: T1, Tropomyosin C-terminal fragment Tpm WT 134–284 (human, UniProt P09493 134-284)
T1 construct: also called Tpm C-end; source: E. coli C41 (DE3), purified (anion exchange, HiTrap Q HP)
Experiment: ITC; MicroCal PEAQ-ITC, 25 °C; 30 mM HEPES-Na pH 7.3, 100 mM NaCl, 1 mM DTT; sample in the cell 30 to 60 µM, ligand in the syringe 200 to 700 µM; one set of binding sites
Conditions: both partners purified

T1 sequence (P09493 134-284): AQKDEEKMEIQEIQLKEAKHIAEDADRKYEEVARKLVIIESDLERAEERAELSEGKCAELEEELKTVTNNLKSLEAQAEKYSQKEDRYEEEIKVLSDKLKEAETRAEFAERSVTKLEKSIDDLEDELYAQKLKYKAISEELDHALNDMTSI

B1: Tropomyosin N-terminal fragment Tpm WT 1–133 (domain or fragment)
chain: not shown
notes: human tropomyosin Tpm1.1 (alpha-Tpm), residues 1-133 (ends at the trypsin site Arg133); Made from the full Tpm1.1 construct by primers that put a stop after Arg133; also called Tpm_(1–133); Tpm N-end; source: E. coli C41 (DE3), purified (anion exchange, HiTrap Q HP)
  Kd: 10.2 ± 0.3 µM
  dH: 1.95 ± 0.15 kcal/mol
  stoichiometry N: 1.17 ± 0.05
